Data reported in article PMC2764089.

Molecular target: Spc105p-PrA (S. cerevisiae) (UniProt P53148)
Test: SEC + other: glycerol-gradient velocity ultracentrifugation; whole cell extracts of wild-type strains expressing Spc105p-PrA or Kre28p-PrA (each fusion in its own strain); 10-40% glycerol gradients and HiPrep 16/60 Sephacryl S-500 HR column; fractions found by western blotting with anti-PrA

Sequence of UniProt P53148 (P53148 whole entry, the tested form may be a part): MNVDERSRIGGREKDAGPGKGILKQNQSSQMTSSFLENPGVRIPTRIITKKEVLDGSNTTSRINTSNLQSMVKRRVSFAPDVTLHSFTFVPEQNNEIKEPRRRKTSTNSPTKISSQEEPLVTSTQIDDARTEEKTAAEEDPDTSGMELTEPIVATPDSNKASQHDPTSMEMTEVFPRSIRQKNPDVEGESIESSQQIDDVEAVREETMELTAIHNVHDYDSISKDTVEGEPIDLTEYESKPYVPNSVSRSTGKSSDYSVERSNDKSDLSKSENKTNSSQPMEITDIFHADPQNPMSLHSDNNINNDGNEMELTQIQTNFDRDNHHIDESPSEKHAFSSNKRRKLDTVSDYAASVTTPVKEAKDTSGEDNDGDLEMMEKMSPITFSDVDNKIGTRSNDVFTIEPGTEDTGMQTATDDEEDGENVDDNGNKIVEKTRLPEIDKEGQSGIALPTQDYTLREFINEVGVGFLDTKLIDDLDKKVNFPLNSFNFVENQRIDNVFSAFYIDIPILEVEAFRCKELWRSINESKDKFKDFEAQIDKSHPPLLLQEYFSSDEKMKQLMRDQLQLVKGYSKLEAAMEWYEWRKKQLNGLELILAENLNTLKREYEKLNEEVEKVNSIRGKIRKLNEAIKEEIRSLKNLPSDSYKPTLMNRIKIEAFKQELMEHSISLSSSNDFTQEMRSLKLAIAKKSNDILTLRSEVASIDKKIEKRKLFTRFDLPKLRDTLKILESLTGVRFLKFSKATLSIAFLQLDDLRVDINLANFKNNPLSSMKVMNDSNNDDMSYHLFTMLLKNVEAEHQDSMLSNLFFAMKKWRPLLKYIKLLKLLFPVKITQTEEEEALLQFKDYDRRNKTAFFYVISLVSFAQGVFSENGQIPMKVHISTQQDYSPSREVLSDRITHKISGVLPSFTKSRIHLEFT

Kre28p-PrA (from UniProt Q04431 1-385) (natural protein)
stoichiometry N (Kre28p per Spc105p): 2
